Measured values reported in patent publication US7521477B2, “Vitamin C derivatives with peptide, preparation method thereof and composition comprising the same” (Peptron Co., Ltd., priority 2003, dated 2009).
Numbered stars: 1 amine (or outer) side, 2 acyl side, 3 side chain; on linkers, the order of the positions; unused ones are H or OH. Ends that are not written are not given here. * marks the point of attachment. Suc = O=C(CCC(=O)[*:2])[*:1]; Propyl = CCC*

Test: Color change test (storage stability in solution)
Type: physicochemical
Set-up: key: −: no or very slight noticeable change (colorless or light yellow); +: slight; ++: moderate; +++: extreme
Conditions: 50 mM in 50 mM potassium phosphate pH 7.0, 40° C.
Description: The compounds I to IV synthesized in Example 4 and vitamin C (Sigma Aldrich) were independently dissolved in 50 mM potassium phosphate of pH 7.0 at a concentration of 50 mM, and stored in an incubator at 40° C. for three weeks. Thereafter, the compounds and vitamin C were evaluated for color change according to the standard criteria, and the results are given in Table 2, below.

With “2-(propyl-glycyl-lysyl-histidine)ascorbic acid [IV-2]” the “Color change After 1 week” value was “−”, the “Color change After 2 weeks” value was “+” and the “Color change After 3 weeks” value was “++”.

With “2-(propyl-lysyl-threonyl-threonyl-lysyl-serine(SEQ ID NO:1))ascorbic acid ({ascorbic acid-Propyl}-KTTKS) [IV-4]” the “Color change After 1 week” value was “−”, the “Color change After 2 weeks” value was “+” and the “Color change After 3 weeks” value was “++”.

In the case of “5,6-di(succinyl-glycyl-histidyl-lysine)ascorbic acid [III-1]”, the “Color change After 1 week” value is reported as “−”, the “Color change After 2 weeks” value is reported as “+” and the “Color change After 3 weeks” value is reported as “+”.

In the case of “5,6-di(succinyl-glycyl-lysyl-histidine)ascorbic acid [III-2]”, the “Color change After 1 week” value is reported as “−”, the “Color change After 2 weeks” value is reported as “+” and the “Color change After 3 weeks” value is reported as “+”.

For “5,6-di(succinyl-lysyl-threonyl-threonyl-lysyl-serine(SEQ ID NO:1))ascorbic acid ({ascorbic acid-Suc}-KTTKS; also: two succinyl-linked peptides on one ascorbic acid) [III-4]”, the “Color change After 1 week” value was “−”, the “Color change After 2 weeks” value was “+” and the “Color change After 3 weeks” value was “+”.

For “5-(succinyl-lysyl-threonyl-threonyl-lysyl-serine)ascorbic acid [Compound I-4]”, the “Color change After 1 week” value was “−”, the “Color change After 2 weeks” value was “+” and the “Color change After 3 weeks” value was “+”.

In the case of `NCCCCC(NC(=O)C(Cc1cnc[nH]1)NC(=O)CNC(=O)CCC(=O)OC(CO)C1OC(=O)C(O)=C1O)C(=O)O` (centres unmarked) [Compound I-1, 5-(succinyl-glycyl-histidyl-lysine)ascorbic acid], the “Color change After 1 week” value is reported as “−”, the “Color change After 2 weeks” value is reported as “+” and the “Color change After 3 weeks” value is reported as “+”.

For `NCCCC[C@H](NC(=O)CNC(=O)CCC(=O)OC(CO)C1OC(=O)C(O)=C1O)C(=O)N[C@@H](Cc1c[nH]cn1)C(=O)O` (some centres unmarked) [Compound I-2, 5-(succinyl-glycyl-lysyl-histidine)ascorbic acid], the “Color change After 1 week” value was “−”, the “Color change After 2 weeks” value was “+” and the “Color change After 3 weeks” value was “+”.

With `O=C(CCC(=O)OC(CO)C1OC(=O)C(O)=C1O)NCC(=O)N1CCCC1C(=O)N1CC(O)CC1C(=O)O` (centres unmarked) [Compound I-3, 5-(succinyl-glycyl-prolyl-hydroxyproline)ascorbic acid] the “Color change After 1 week” value was “−”, the “Color change After 2 weeks” value was “+” and the “Color change After 3 weeks” value was “+”.

For `O=C(CCC(=O)OCC(O)C1OC(=O)C(O)=C1O)NCC(=O)N1CCCC1C(=O)N1CC(O)CC1C(=O)O` (centres unmarked) [II-3, 6-(succinyl-glycyl-prolyl-hydroxyproline)ascorbic acid], the “Color change After 1 week” value was “−”, the “Color change After 2 weeks” value was “+” and the “Color change After 3 weeks” value was “+”.

In the case of `O=C(CCC(=O)OCC(OC(=O)CCC(=O)NCC(=O)N1CCCC1C(=O)N1CC(O)CC1C(=O)O)C1OC(=O)C(O)=C1O)NCC(=O)N1CCCC1C(=O)N1CC(O)CC1C(=O)O` (centres unmarked) [III-3, 5,6-(succinyl-glycyl-prolyl-hydroxyproline)ascorbic acid], the “Color change After 1 week” value is reported as “−”, the “Color change After 2 weeks” value is reported as “+” and the “Color change After 3 weeks” value is reported as “+”.

In the case of `NCCCCC(NC(=O)C(Cc1cnc[nH]1)NC(=O)CNCCCOC1=C(O)C(C(O)CO)OC1=O)C(=O)O` (centres unmarked) [IV-1, 2-(propyl-glycyl-histidyl-lysine)ascorbic acid], the “Color change After 1 week” value is reported as “−”, the “Color change After 2 weeks” value is reported as “+” and the “Color change After 3 weeks” value is reported as “++”.

In the case of `O=C1OC(C(O)CO)C(O)=C1OCCCNCC(=O)N1CCC[C@H]1C(=O)N1CC(O)C[C@H]1C(=O)O` (some centres unmarked) [IV-3, 2-(propyl-glycyl-prolyl-hydroxyproline)ascorbic acid], the “Color change After 1 week” value is reported as “−”, the “Color change After 2 weeks” value is reported as “+” and the “Color change After 3 weeks” value is reported as “++”.

For `O=C1O[C@H]([C@@H](O)CO)C(O)=C1O` [Vitamin C, ascorbic acid], the “Color change After 1 week” value was “+” and the “Color change After 2 weeks” value was “+++”.
